# Assay: yeast display, Sf9 membrane polyspecificity reagent, FACS + sequencing; frameworks hold sequencing errors
# In short: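 Nanobodies from a synthetic yeast display library (Saccharomyces cerevisiae BJ5465), induced 36–48 hours with galactose, were stained 1 hour at 4 °C with 10% biotinylated, detergent-solubilized Sf9 membrane reagent, enriched on streptavidin microbeads, then FACS-sorted. Anti-HA (expression) and streptavidin (reagent binding) fluorescence set low and high (top ~1%) gates. Polyreactivity labels come from the gate of origin. Genes were colony-PCR amplified, MiSeq 2 × 250 sequenced and filtered by CDR length.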
row,Sequence,polyreactivity (PSR sort gate)
1,QVQLVESGGGLVQAGGSLRLSCAASGSIFVPYAMGWYRQAPGKERELVAAISRGGDTNYADSVKGRFTISRDNAKNTVYLQMNSLKPEDTAVYYCNRARHQSSRWHGGYYYWGQGTQVTVSS,low polyreactivity
2,QVQLVESGGGLVQAGGSLRLSCAASGSTFKWYAMGWYRQAPGKERELVAGISWTGASTYYADSVKGRFTISRDNAKNTVYLQMNSLKPDDTAVYYCAADRTYFALLWTGRARYDYWGQGTQVTVSS,high polyreactivity
3,QDQLLESGGGLVQAGGSLRLSCAASGFTFYRYAMGWYRQAPGKERELVASISKSCGSTYYADSVKGRFTISRDNAKNTVYLQMNSLKPEDTAVYYCAADVDYPYGYWGQGTQVTVSS,low polyreactivity
4,QVQLVESGGGLVQAGGSLRLSCAASGFTFRNYAMGWYRKAPGKERELVATIDRGTTSTYYADSVKGRFTISRDNAKNTVYLQMNSLKPEDTAVYYCAARAWRYGYGYWGQGTQVTVSS,high polyreactivity
5,QVQLVESGGGLVQAGGSLRLSCAASGFIFSSNAMGWYRQAPGKEREFVAAISFRGGTTYYADSVKRRFTISRDNAKNTVYLQLNSLKPEDTAVYYCNAVRWRSGRWWWYDYWGQGTQVTVSS,low polyreactivity
6,QVQLVESGGGLVQAGGSLRLSCAAAGSIFGDYVMGWYRQAPGKERELVPANTSATSTYYADSVKGRFTISRDNAKNTVYLQMNSLKPEDTAVYYCNADATYPLWPNIWYDYDYWGQGTQVTVSS,low polyreactivity
7,QDQLVESGGGLVQAGGSLRLSCAASGLSFASYVMGWYRQAPGKERELVAAISSSGDSTYYADSVKGRFTLSRDNAKNTVYLQMNSLKPEDTAVYYCAAKDYVWGQGTQVTVSS,low polyreactivity
8,QVQLVESGGGLVEAGGSLRLSCAASGFTFGYYAMGWYRPAPGKERELVAAITNGGRTNYAYSVKGRFTISRDNAKNTVYLQMNSLKPEDTAVYFCATDHYWSREVYWGQGTQVTVSS,low polyreactivity
9,QVQLVDSGGGLVQAGGSLRLSCAASGSIFVPYAMGWYRQAPRKERELVAAISWSGGSTNYADSVKGRFTISRDNAKNTVYLQMNSLKPEDTAVYYCNARWSSWYIHSHYYYWGQGTQVTVSS,high polyreactivity
10,QVQLVESGGGLVQAGGSLRLSCAASGRISYSNAMGWYRQAPGKERELVAAITSSGGSTYYADSVKGRFTISRDNAKNTVYLQMNSLKPEDTAVYYCAAVAYALGFASKEDYWGQGTQVTVSS,high polyreactivity
11,QVQLVESGGGLVQAGGSLRLSCAASGSIFGWYAMGLYRQAPGKERELVAAITFSSVSTYYADSVKGRFTISRDNAKNTVYLQMNSLKPEVTAVYYCGAVVYYTFDYWVQGTQVTVSS,low polyreactivity
12,QVQLVESGGGLVQAGGSLRLSCAASGSTFDDYAMGWYRQAPGKERELVAAISSSGGRTYYADSVKGRFTISRDNAKNTVYLQMNSLKPEDTAVYYCNADSYRSRGRYEFGRFDYWGQGTQVTVSS,high polyreactivity
13,QVQLHESGGGMVQAGGSLRLSSAASGIIFDNPNMGWYRLSPGKERELVATINSGATTNYADSVKGRFTISRDNEKNTVYLLMNSLIPEETAVYFCAVDLSPTYFYYWGQGTKVTVSS,high polyreactivity
14,QDQLVESGGGLVQAGGSLRLSCAASGRTIYQNAMGWYRQAPGKERELVAAISRSGGSTYYADSVKGRFTISRDNAKNTVYLQMNSLKPEDTAVYYCAADPRSYGGGYDYWGQGPQVTVSS,high polyreactivity
15,QVQLVESGGGLVQAGGSLRLSCAASGRTFSNYAMGWYRQAPGKERELVAAISQRGGSTYYADSVKGRFTISRDNAKNTVYLLMNSLKPEDTAVYYCNARQTTATGGTGNYWGQGTQVTVSS,high polyreactivity
16,QGQLVESCGGLVQAGGSLRLSCAASGSTFAAYTMGWYRQAPGQERELVAAIRFDGGRTYYADSVKGRFTSSRDNAKNTVYLPMNSLKPEDTAVYYCRAWQSYSYDYWGQGTQVTVSS,high polyreactivity

row,Sequence,polyreactivity (PSR sort gate)
1,QVQLVESGGGLVQAGGSLRLSCADSGYTFVYNAMGWYRQPPGKEREFVAAITWSGTSTRYADSVKGRFTISRDNAKNTVYLQMNSLKPEDTAVYYCAALGSGVPRYYYWGQGTQVTVSS,high polyreactivity
2,QVQLVESGGGLVQAGGSLSLSCAASGTFYGNTMGWYRQAPGKERELVAVISIDGSTNYADSVKGRFTISRDNAKNTVYLQMNCLKPEDTAVYYCNARNQWRTVGKYDYWGQGTQVSVSS,low polyreactivity
3,QVHLGESGGGLVQAGGSLRLSCAASGSTFDRNVIGGYRQAPGKERELVAAISRVSSTNYADSVKGRFTISRDNAKNTVYLQMNSLKPEDTAVYYCAADRAGSIMNYWGQGTQVTVSS,low polyreactivity
4,QVQLVESGVGLVQAGGSLRLSCAASGSTFYAYAMGWNRQAPGKERELVAAISSDGTNYADSVKGRFTISRDNAKNTVYLQMNSLKPDDTAVYYCAADLLLYSSQDNDYWGQGTQVTVSS,low polyreactivity
5,QVQLVESGGGLVQAGGSLRLSCAASGRIFKRNTMGWYRQAPGKERELVAAITRSGGSTHYADSVKGRFTISRDNAKNTVYLQMNSLKPEDTAVYYCAVRAAAIDRLAQFDYWGQGTQVTVSS,low polyreactivity
6,QVQLVESGGGLVQAGGSLRLSCAASGITFPYYAMGWSRQAPGKERELVAAISSSGGSTYYADSVKGRFTISRDNAKNTVYLQLNSLKPEDTAVYYCAAQRYINYDYWGQGTQVTVSS,high polyreactivity
7,QVQLVESGGGLVQAGGSLRLSCAASGFIFLAYAMGWYRQAPGKERELVAAISRSGGRTYYADSVKGRFTISRDNAKNTVYLQMNSLKPEDTAVYYCAPLANGTNGFYYWGQGTQVTVSS,high polyreactivity
8,QVQLVESGGGLVQAGGSLRLSSAASGRIFGKYAMGWYRQAPGKERELVAAIRITGGSTYYADSVKGRFTISRDNAKNTVYLQMNSLKPEDTAVYYSAAVYKYADVIYDYWGQGTQVTVSS,high polyreactivity
9,QVQLVESGGGLVQAGGSLRLSCAASGRIFGGYAMGWYRQAPGKERELVAAISSRGGSTYYADSVKGRFTISRDNAKNTVYLQMNSLNPEDTAVYYCARTKYGRYRYGEYDYWGQGTQVTVSS,high polyreactivity
10,QVQLGESGAGLVQAGGSLRLSCAASGRTFYRYAMGWYRQAPGKERELVAAISSSGGRTYYADSVKGRFTISRDNAKNTVYLQMNSLKPEDTAVYYCAKSGYHSLVLWIEDYWGQGTQVTVSS,low polyreactivity
11,QVQLVESGGGLVQAGGILRLSCAASGRIFYYNTMGWYRQAPGKERELVAAITRGGGRTYYADSVKGRFTISRDNAKNTVYLQMNSLKPEDTAVYYCNTRSTLGYYWGQGTQVTVSS,high polyreactivity
12,QVQLVESGGGLVQAGGSLRLSCAASGLIFGPNAMGWYRQSPGKERELVAAITKSGDSTYYADSVKGRFTISRDNAKNTVYLQMNSLKPEDTAVYYCAADTTTGLYDYWGQGTQVTVSS,low polyreactivity
13,QVQLVESGGGLVQAGGSLRLSCAASGSTFYIYVMGWYRQAPGKERELVARISSSGGSTYYADSVKGRFTISRDNAKNTVYLQMNSLKPEDTAVYYCNVDYGAWYDYWGQGTQVTVSS,low polyreactivity
14,QVQLVESGGGLVQAGGSLRLSCAASGSTFRFNAMGWYRQAPGKERELVAAITGIGGITYYADSVKGRFTISRDNAKNTVYFQMNSLKPEDTAVYYCNAAGGYKPYLQDVDSRYDYWGQGTQVTVSS,high polyreactivity
15,QVQLVESVGGLVQAGGSLGLTCAASGFIFRYYAMGWYRQAPGLERELVAPINASGGRTYYADSVKGRFTISRDNARNTLYLQMNSLKPEDTAVYYCAAYRSYQTFDYWGQGTQVTVSS,high polyreactivity
16,QVQLLESGGGLVQAGGSLRLSCAASGSTFGYYAMGWYRQAPGKERELVAAITRSGSSTYYADSVKGRFTISRDNAKNTVYLQMNSLKPEDTAVYYCAAEARYWIYEYDYWGQGTQVTGSS,high polyreactivity

# Reference: the nanobody polyreactivity screen of Harvey et al. (2022)
